From US20230213525

B1: human leukocyte elastase (HLE) (protein)
chain: IVGGRRARPHAWPFMVSLQLRGGHFCGATLIAPNFVMSAAHCVANVNVRAVRVVLGAHNLSRREPTRQVFAVQRIFENGYDPVNLLNDIVILQLNGSATINANVQVAQLPAQGRRLGNGVQCLAMGWGLLGRNRGIASVLQELNVTVVTSLCRRSNVCTLVRGRQAGVCFGDSGSPLVCNGLIHGIASFVRGGCASGLYPDAFAPVAQFVNWIDSIIQ
B2: recombinant expressed bovine enterokinase from Merck Millipore (protein)
chain: IVGGSDSREGAWPWVVALYFDDQQVCGASLVSRDWLVSAAHCVYGRNMEPSKWKAVLGLHMASNLTSPQIETRLIDQIVINPHYNKRRKNNDIAMMHLEMKVNYTDYIQPICLPEENQVFPPGRICSIAGWGALIYQGSTADVLQEADVPLLSNEKCQQQMPEYNITENMVCAGYEAGGVDSCQGDSGGPLMCQENNRWLLAGVTSFGYQCALPNRPGVYARVPRFTEWIQSFLH

Assays:
[1] = biological target: T1, ElaSub1_CBM_His chimeric protein (variant 3), separated from the TrxA tag and coupled with Remazol Brilliant Blue
T1 chain: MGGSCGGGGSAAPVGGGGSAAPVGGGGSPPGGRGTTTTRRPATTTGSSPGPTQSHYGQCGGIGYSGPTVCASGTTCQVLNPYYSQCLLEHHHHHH

[2] = biological target: T2, TrxA_ElaSub1_CBM-His fusion protein
T2 chain: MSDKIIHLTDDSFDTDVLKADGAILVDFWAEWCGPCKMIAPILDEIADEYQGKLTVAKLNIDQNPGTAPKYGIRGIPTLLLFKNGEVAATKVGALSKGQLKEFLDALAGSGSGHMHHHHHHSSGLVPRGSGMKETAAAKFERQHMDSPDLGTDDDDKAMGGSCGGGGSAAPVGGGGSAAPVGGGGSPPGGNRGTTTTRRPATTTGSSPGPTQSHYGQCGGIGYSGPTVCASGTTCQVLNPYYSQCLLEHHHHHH

Protein	colour of the supernatant (dye release from the filter strip carrying the chimeric peptide, 30 min, 0.05 U/ml HLE) [1]	separation of the chimeric construct from the TrxA tag (SDS-PAGE) [2]
B1	Initially non coloured samples (clear supernatant) that exhibit elastase activity developed a blue colour	–
B2	–	The separation of the desired chimeric construct from the TrxA-Tag was verified by SDS-PAGE.
